From patent US20190330321A1 (UCB, published 2019)
Numbering of substitutions follows the chain as printed.

Key:
Experiment in all cases: cell-based or functional assay
mature human TGF-beta 1 = mature human TGF-beta 1 (human, UniProt P01137 279-390)
mature human TGF-beta 2 = target: T1, mature human TGF-beta 2 (human, UniProt P61812 303-414)
T1 sequence: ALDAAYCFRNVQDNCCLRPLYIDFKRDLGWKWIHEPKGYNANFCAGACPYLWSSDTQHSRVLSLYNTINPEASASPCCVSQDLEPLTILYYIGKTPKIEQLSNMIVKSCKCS

mature human TGF-beta 3 = target: T2, mature human TGF-beta 3 (human, UniProt P10600 301-412)
T2 sequence: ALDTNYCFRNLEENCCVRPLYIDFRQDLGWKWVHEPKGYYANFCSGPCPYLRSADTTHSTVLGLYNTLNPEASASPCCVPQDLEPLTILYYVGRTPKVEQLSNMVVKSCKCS

[1] = target: endogenously produced TGF-beta (isoform not given)

Chain of mature human TGF-beta 1 (P01137 279-390 limits assumed): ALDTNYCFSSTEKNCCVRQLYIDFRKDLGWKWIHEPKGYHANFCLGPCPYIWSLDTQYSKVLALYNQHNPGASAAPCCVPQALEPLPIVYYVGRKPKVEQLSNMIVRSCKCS

B1: 4856 rabbit Fab (Fab, V domains shown)
VH: QSLEESGGRLVTPGTPLTLTCTASGFSLSSYDMSWVRQAPGKGLEWIGIIYGGSGSTWYASWAKGRFTMSKTSTTVDLKITSPTTEDMATYFCARGRDGGAGGSRNGYSLWGQGTLVTVSS
VL: AYDMTQTPASVEVAVGGTVTIKCQASESIYSGLAWYQQTPGQRPKLLIYAASDLASGVPSRFKGSGSGTEYTLTISGVECADAATYYCQQTWTDGGIDNPFGGGTEVVVKR
For B1, the “Geomean IC50, HEK-Blue TGF-beta reporter gene assay” value (mature human TGF-beta 1) was 1.77 not clear (head says nM), the “Geomean IC50, HEK-Blue TGF-beta reporter gene assay” value (mature human TGF-beta 2) was 0.3 not clear (head says nM) and the “Geomean IC50, HEK-Blue TGF-beta reporter gene assay” value (mature human TGF-beta 3) was 24.5 not clear (head says nM).

B2: antibody 4856 gL3gH13 Fab (humanised) (Fab)
heavy: EVQLVESGGGLVKPGGSLRLSCAASGFSLSSYDMSWVRQAPGKGLEWIGIIYGGSGSTWYASWAKGRFTISRDSAKNSVYLQMNSLRAEDTAVYYCARGRDAGAGGSRNGYSLWGQGTLVTVSSASTKGPSVFPLAPSSKSTSGGTAALGCLVKDYFPEPVTVSWNSGALTSGVHTFPAVLQSSGLYSLSSVVTVPSSSLGTQTYICNVNHKPSNTKVDKKVEPKSC
light: AYDMTQSPSTLSASVGDRVTITCQASESIYSGLAWYQQKPGKAPKLLIYAASDLASGVPSRFSGSGSGTEYTLTISSLQPDDFATYYCQQTWTDGGIDNPFGGGTKVEIKRTVAAPSVFIFPPSDEQLKSGTASVVCLLNNFYPREAKVQWKVDNALQSGNSQESVTEQDSKDSTYSLSSTLTLSKADYEKHKVYACEVTHQGLSSPVTKSFNRGEC
With B2 the IC50, Collagen I&III deposition, RPTEC and HRF co-culture, N = 1 [1] was 22.4 nM, the IC50, Collagen I&III deposition, RPTEC and HRF co-culture, N = 2 [1] was 48 nM and the IC50, Collagen V deposition, RPTEC and HRF co-culture, N = 1 [1] was 38.9 nM. The IC50, Collagen V deposition, RPTEC and HRF co-culture, N = 2 [1] was 81.6 nM, the IC50, Fibronectin deposition, RPTEC and HRF co-culture, N = 1 [1] was 32.6 nM and the IC50, Fibronectin deposition, RPTEC and HRF co-culture, N = 2 [1] was 27.1 nM. The IC50 Geo Mean, Collagen I&III deposition, RPTEC and HRF co-culture [1] was 32.8 nM, the IC50 Geo Mean, Collagen V deposition, RPTEC and HRF co-culture [1] was 56.3 nM and the IC50 Geo Mean, Fibronectin deposition, RPTEC and HRF co-culture [1] was 29.7 nM. It also gave an IC50 geometric mean, BxPC3 and HEK-Blue TGF-beta co-culture assay [1] of 3.95 nM.

B3: antibody 4856 gL3gH29 Fab (humanised) (Fab)
heavy: B2 heavy with N109D
light: B2 light
B3 gave an IC50 geometric mean, BxPC3 and HEK-Blue TGF-beta co-culture assay [1] of 3.77 nM.

B4: antibody 4856 gL3gH23 Fab (humanised) (Fab)
heavy: B2 heavy with G110A
light: B2 light
In the case of B4, the IC50 geometric mean, BxPC3 and HEK-Blue TGF-beta co-culture assay [1] is reported as 9.1 nM.

B5: antibody 4856 gL3gH20 Fab (humanised) (Fab)
heavy: B2 heavy with G49S, I70M, R72K
light: B2 light
B5 was tested, and the IC50 geometric mean, BxPC3 and HEK-Blue TGF-beta co-culture assay [1] was 4.63 nM.

B6: 4856 rabbit Fab (Fab)
heavy: QSLEESGGRLVTPGTPLTLTCTASGFSLSSYDMSWVRQAPGKGLEWIGIIYGGSGSTWYASWAKGRFTMSKTSTTVDLKITSPTTEDMATYFCARGRDGGAGGSRNGYSLWGQGTLVTVSSGQPKAPSVFPLAPCCGDTPSSTVTLGCLVKGYLPEPVTVTWNSGTLTNGVRTFPSVRQSSGLYSLSSVVSVTSSSQPVTCNVAHPATNTKVDKTV
light: AYDMTQTPASVEVAVGGTVTIKCQASESIYSGLAWYQQTPGQRPKLLIYAASDLASGVPSRFKGSGSGTEYTLTISGVECADAATYYCQQTWTDGGIDNPFGGGTEVVVKRTPVAPTVLIFPPAADQVATGTVTIVCVANKYFPDVTVTWEVDGTTQTTGIENSKTPQNSADCTYNLSSTLTLTSTQYNSHKEYTCKVTQGTTSVVQSFNRGDC
In the case of B6, the Geomean IC50, BxPC3-HEK-Blue TGF-beta reporter gene co-culture assay [1] is reported as 3.7 nM.
